Reference: US20210277104A1 (Janssen / Centocor, published 2021)

Columns and labels:
[1] = molecular target: T1, recombinant human TNFα (human, UniProt P01375 77-233, 125I-labeled in the receptor binding inhibition assay; unlabeled in the EIA); assay: inhibition of 125I-TNFα binding to plate-coated p55-sf2; reference TNV118 and TNV14
T1 construct: also called huTNFα; tumor necrosis factor alpha
Procedure: 50:1 of p55-sf2 at 0.5:g/ml in PBS was added to Optiplates to coat the wells during a one-hour incubation at 37° C. Serial dilutions of the eight TNV cell supernatants were prepared in 96-well round-bottom plates using PBS/0.1% BSA as diluent. […] The mixture was preincubated for one hour at RT. […] After 2 hrs at RT, Optiplates were washed three times with PBS-Tween. […] of Microscint-20 was added and the cpm bound determined using the TopCount […].
The concentrations of the TNV mAbs in their respective cell supernatants were first determined by standard ELISA analysis for human IgG.

[2] = molecular target: T1, recombinant human TNFα; assay: Competition radioligand assay: inhibition of 5 ng/ml 125I-TNFα binding to plate-coated p55-sf2
[3] = molecular target: T1, recombinant human TNFα; assay: cell-based or functional assay

Row | Binder | fold better at blocking TNF binding than TNV118 and TNV14 [1] | IC50 (read off the curve) [2] | neutralizing TNFα bioactivity [3]
1 | TNV148 (antibody, V domains shown) VH: QVQLVESGGGVVQPGRSLRLSCAASGFIFSSYAMHWVRQAPGNGLEWVAFMSYDGSNKKYADSVKGRFTISRDNPKNTLYLQMNSLRAEDTAVYYCARDRGIAAGGNYYYYGMDVWGQGTTVTVSS VL: EIVLTQSPATLSLSPGERATLSCRASQSVYSYLAWYQQKPGQAPRLLIYDASNRATGIPARFSGSGSGTDFTLTISSLEPEDFAVYYCQQRSNWPPFTFGPGTKVDIKR | ~4 fold | ~4 ng/mL | 4 fold
2 | TNV196 (antibody, V domains shown) VH: QVQLVESGGGVVQPGRSLRLSCAASGFTFSSYAMHWVRQAPGKGLEWVAFISYDGSNKKSADSVKGRFTVSRDNSKNTLFLQMNSLRAEDTAVFYCARDRGIGAGGNYYYYGMDVWGQGTTVTVSS VL: EIVLTQSPATLSLSPGERATLSCRASQSVYSYLAWYQQKPGQAPRLLIYDASNRATGIPARFSGSGSGTDFTLTISSLEPEDFAVYYCQQRSNWPPFTFGPGTKVDIK |  | ~4 ng/mL | 4 fold
3 | TNV86 (antibody, human IgG1, V domains shown, Totally human IgG1 kappa from hybridoma, tested as hybridoma supernatant; Variable regions identical to TNV148; also called GenTNV86.14.34; C417A) VH: QVQLVESGGGVVQPGRSLRLSCAASGFIFSSYAMHWVRQAPGNGLEWVAFMSYDGSNKKYADSVKGRFTISRDNPKNTLYLQMNSLRAEDTAVYYCARDRGIAAGGNYYYYGMDVWGQGTTVTVSS VL: EIVLTQSPATLSLSPGERATLSCRASQSVYSYLAWYQQKPGQAPRLLIYDASNRATGIPARFSGSGSGTDFTLTISSLEPEDFAVYYCQQRSNWPPFTFGPGTKVDIK | ~4 fold |  | 
